This passage reports unfolding free energy results from FireProtDB (doi:10.1073/pnas.84.13.4441).

The conditions of the data set: Escherichia coli (strain K12), 25 °C, GdnHCl, CD, Potassium phosphate 20 mM, reversible: yes, whole UniProt chain shown.

B1: Tryptophan synthase alpha chain wild type, P0A877 (protein)
chain: MERYESLFAQLKERKEGAFVPFVTLGDPGIEQSLKIIDTLIEAGADALELGIPFSDPLADGPTIQNATLRAFAAGVTPAQCFEMLALIRQKHPTIPIGLLMYANLVFNKGIDEFYAQCEKVGVDSVLVADVPVEESAPFRQAALRHNVAPIFICPPNADDDLLRQIASYGRGYTYLLSRAGVTGAENRAALPLNHLVAKLKEYNAAPPLQGFGISAPDQVKAAIDAGAAGAISGSAIVKIIEQHINEPEKMLAALKVFVQPMKAATRS
As for B1, the unfolding free energy (pH 7) amounted to 18.2 kcal/mol and the unfolding free energy (pH 9) worked out at 18 kcal/mol.
